{"source": "paper PMC7863765", "about": "(Journal of Molecular Biology, 2021)", "proteins": {"B1": {"name": "untagged full-length human 14-3-3γ (natural protein, UniProt P61981 1-247, looked up)", "chain": "MVDREQLVQKARLAEQAERYDDMAAAMKNVTELNEPLSNEERNLLSVAYKNVVGARRSSWRVISSIEQKTSADGNEKKIEMVRAYREKIEKELEAVCQDVLSLLDNYLIKNCSETQYESKVFYLKMKGDYYRYLAEVATGEKRATVVESSEKAYSEAHEISKEHMQPTHPIRLGLALNYSVFYYEIQNAPEQACHLAKTAFDDAIAELDTLNEDSYKDSTLIMQLLRDNLTLWTSDQQDDDGGEGNN", "notes": "human 14-3-3 protein gamma, full length, untagged"}}, "molecular_target": "the molecule itself", "assay": "SEC-MALS"}
{"protein": "B1", "values": [{"measurement": "stoichiometry N", "value": 2}]}
